Measured values: patent US7897573B2, “Selective VPAC2 receptor peptide agonists” (priority 2005, dated 2011)

How the values were obtained:
Human VPAC1 Receptor = biological target: T1, Human VPAC1 Receptor (Homo sapiens, UniProt P32241); experiment: Filter binding assay, 125I-labeled VIP, membranes of cells transiently transfected with human VPAC1; details: 125I-labeled VIP tracer
T1 construct: expressed in transfected cells
T1 sequence (P32241 31-457): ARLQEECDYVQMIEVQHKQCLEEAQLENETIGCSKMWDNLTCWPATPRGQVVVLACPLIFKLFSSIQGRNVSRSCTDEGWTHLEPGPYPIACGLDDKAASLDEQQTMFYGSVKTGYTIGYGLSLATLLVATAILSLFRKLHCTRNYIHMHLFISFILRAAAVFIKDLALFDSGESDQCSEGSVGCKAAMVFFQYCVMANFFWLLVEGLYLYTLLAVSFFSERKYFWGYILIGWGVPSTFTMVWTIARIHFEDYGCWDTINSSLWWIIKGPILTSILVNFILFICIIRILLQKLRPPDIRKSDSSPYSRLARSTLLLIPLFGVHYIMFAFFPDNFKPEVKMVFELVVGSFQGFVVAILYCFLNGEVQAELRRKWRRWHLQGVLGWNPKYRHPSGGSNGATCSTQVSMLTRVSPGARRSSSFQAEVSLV
Protocol: (§1) For this assay, the solutions and equipment include:
(§2) Presoak solution: 0.5% Polyethyleneamine in Aqua dest
(§3) Buffer for flushing filter plates: 25 mM HEPES pH 7.4
(§4) Blocking buffer: 25 mM HEPES pH 7.4; 0.2% protease free BSA
(§5) Assay buffer: 25 mM HEPES pH 7.4; 0.5% protease free BSA
(§6) Dilution and assay plate: PS-Microplate, U form
(§7) Filtration Plate Multiscreen FB Opaque Plate; […] Type B Glasfiber filter
(§8) In order to prepare the filter plates, the presoak solution is aspirated by vacuum filtration. The plates are flushed twice with 200 μL flush buffer. 200 μL blocking buffer is added to the filter plate. The filter plate is then incubated with 200 μL presoak solution for 1 hour at room temperature.
(§9) The assay plate is filled with 25 μL assay buffer, 25 μL membranes (2.5 μg) suspended in assay buffer, 25 μL agonist in assay buffer, and 25 μL tracer (about 40000 cpm) in assay buffer. The filled plate is incubated for 1 hour with shaking.
(§10) The transfer from assay plate to filter plate is conducted. The blocking buffer is aspirated by vacuum filtration and washed two times with flush buffer. 90 μL is transferred from the assay plate to the filter plate. The 90 μL transferred from assay plate is aspirated and washed three times with 200 μL flush buffer. The plastic support is removed. It is dried for 1 hour at 60° C. 30 μL Microscint is added. The count is performed.

Human PAC1 Receptor = biological target: T2, Human PAC1 Receptor (Homo sapiens, UniProt P41586); experiment: Filter binding assay, 125I-labeled PACAP-27, membranes of cells transiently transfected with human PAC1; details: 125I-labeled PACAP-27 tracer
T2 construct: expressed in transfected cells
T2 sequence (P41586 21-468): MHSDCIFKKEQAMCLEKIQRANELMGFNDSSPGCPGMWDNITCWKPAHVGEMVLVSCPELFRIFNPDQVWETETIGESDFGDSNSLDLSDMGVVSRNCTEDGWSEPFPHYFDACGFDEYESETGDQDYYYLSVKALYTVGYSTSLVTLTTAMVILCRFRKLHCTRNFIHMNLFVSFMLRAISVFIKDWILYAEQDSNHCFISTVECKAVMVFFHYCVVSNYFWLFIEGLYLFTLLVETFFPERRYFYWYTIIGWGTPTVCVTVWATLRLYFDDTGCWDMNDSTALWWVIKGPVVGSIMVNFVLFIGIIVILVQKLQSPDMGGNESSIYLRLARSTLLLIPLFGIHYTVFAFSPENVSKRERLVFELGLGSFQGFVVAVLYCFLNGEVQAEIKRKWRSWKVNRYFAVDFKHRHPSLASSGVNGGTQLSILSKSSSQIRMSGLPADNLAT
Protocol: as §1, §2, §3, §4, §5, §6, §7, §8, §9, §10

[1] = Pharmacokinetic profiles of PEGylated peptides in Fisher 344 rats; type: in vivo, rat; details: 100 μg agonist/kg, plasma RIA, mean N = 3
Protocol: Pharmacokinetic profiles of PEGylated peptides. Healthy Fisher 344 rats (3 animals per group) were injected with 100 μg agonist/kg (agonist amount based on peptide content and dissolved in PBS buffer). Blood samples were drawn 3, 12, 24, 48, 72, 96 and 168 hour post dosing and the peptide content in plasma was analysed by a radio-immunoassay (RIA) directed against the N-terminus of the peptide. PK parameters were then calculated using a model-independent method (WinNonlin Pro, Pharsight Corp., Mountain View, Calif., USA).

[2] = Rat serum stability study (DiscoveRx cAMP read-out on CHO-VPAC2 cells); details: EC50, 4° C./EC50, 37° C., values >100% may represent release of intact peptide from the PEG conjugate; for 72 h stab (%): 72 h in rat serum at 37° C.; for 24 h stab (%): 24 h in rat serum at 37° C.
Protocol: In order to determine the stability of VPAC2 receptor peptide agonists in rat serum, CHO-VPAC2 cells clone #6 (96 well plates/50,000 cells/well and 1 day culture), PBS 1× (Gibco), the peptides for the analysis in a 100 μM stock solution, rat serum from a sacrificed normal Wistar rat, aprotinin, and a DiscoveRx assay kit are obtained. The rat serum is stored at 4° C. until use and is used within two weeks.
The aliquot is stored with aprotinin at 4° C. The aliquot is stored without aprotinin at 37° C. The aliquots are incubated for 24 or 72 hours.
On Day 1, after incubation of the aliquots prepared on day 0 for 24 or 72 hours, an incubation buffer containing PBS+1.3 mM CaCl2, 1.2 mM MgCl2, 2 mM glucose, and 0.25 mM IBMX is prepared. A plate with 11 serial 5× dilutions of peptide for the 4° C. and 37° C. aliquot is prepared for each peptide studied. […] The plate(s) are washed with cells twice in incubation buffer. The plates are allowed to hold 50 μL incubation media per well for 15 minutes. 50 μL solution per well is transferred to the cells from the plate prepared with 11 serial 5× dilutions of peptide for the 4° C. and 37° C. aliquot for each peptide studied, using the maximal concentrations that are indicated by the primary screen, in duplicate. This step dilutes the peptide concentration by a factor of two. The cells are incubated at room temperature for 30 minutes. The supernatant is removed. 40 μL/well of the DiscoveRx antibody/extraction buffer is added. The cells are incubated on the shaker (300 rpm) for 1 hour. Normal procedure with the DiscoveRx kit is followed. cAMP standards are included in column 12. EC50 values are determined from the cAMP assay data.

C6-HSDAVFTEQY(OMe)TOrnLRAibQC(PEG40K)AAbuAibOrnYLQAibIOrnOrnGGPSSGAPPPS-NH2 (HSDAVFTEQYTXLRXQCAXXXYLQXIXXGGPSSGAPPPS; C6 acyl, PEG40K on Cys, C-terminal amide; Synthetic sequence PEGylated VPAC2 receptor agonist) [Agonist P545]
IC50 (Human VPAC1 Receptor): > 25000 nM | IC50 (Human PAC1 Receptor): > 25000 nM | AUC0-last [1]: 12737 ng·h/mL | Cl/F [1]: 0.12 mL/min/kg | Cmax [1]: 139 ng/mL | Tmax [1]: 72 h | T½ [1]: 43 h

C6-HSDAVFTEQY(OMe)TOrnLRAibQLAAbuAibOrnY(OMe)LQSIOrnOrnGGPSSGAPPPC(PEG20K)C(PEG20K)-NH2 (HSDAVFTEQYTXLRXQLAXXXYLQSIXXGGPSSGAPPPCC; C6 acyl, non-natural residues, two PEG20K, C-terminal amide; Synthetic sequence PEGylated VPAC2 receptor agonist) [Agonist P582]
IC50 (Human VPAC1 Receptor): > 25000 nM | IC50 (Human PAC1 Receptor): > 25000 nM

C6-HSDAVFTEQY(OMe)TOrnLRAibQLAAbuAibOrnYAibQSIOrnOrnGGPSSGAPPPC(PEG20K)C(PEG20K)-NH2 (HSDAVFTEQYTXLRXQLAXXXYXQSIXXGGPSSGAPPPCC; C6 acyl, two PEG20K, C-terminal amide; Synthetic sequence PEGylated VPAC2 receptor agonist) [Agonist P521]
72 h stab (%) [2]: 294% | AUC0-last [1]: 7633 ng·h/mL | Cl/F [1]: 0.217 mL/min/kg | Cmax [1]: 233 ng/mL | Tmax [1]: 12 h | T½ [1]: 19 h

C6-HSDAVFTEQY(OMe)TOrnLRAibQLAAbuAibOrnYLQAibIOrnC(PEG20K)OrnGGPSSGAPPPC(PEG20K)-NH2 (HSDAVFTEQYTXLRXQLAXXXYLQXIXCXGGPSSGAPPPC; C6 acyl, two PEG20K, C-terminal amide; Synthetic sequence PEGylated VPAC2 receptor agonist) [Agonist P553]
IC50 (Human VPAC1 Receptor): > 25000 nM | IC50 (Human PAC1 Receptor): > 25000 nM

C6-HSDAVFTEQY(OMe)TOrnLRAibQLAAbuAibOrnYLQAibIOrnC(PEG40K)OrnGGPSSGAPPPS-NH2 (HSDAVFTEQYTXLRXQLAXXXYLQXIXCXGGPSSGAPPPS; C6 acyl, PEG40K on Cys, C-terminal amide; Synthetic sequence PEGylated VPAC2 receptor agonist) [Agonist P537]
IC50 (Human VPAC1 Receptor): > 25000 nM | IC50 (Human PAC1 Receptor): > 25000 nM

C6-HSDAVFTEQY(OMe)TOrnLRAibQLAAbuAibOrnYLQAibIOrnOrnC(PEG20K)GGPSSGAPPPC(PEG20K)-NH2 (HSDAVFTEQYTXLRXQLAXXXYLQXIXXCGGPSSGAPPPC; C6 acyl, non-natural residues, two PEG20K, C-terminal amide; Synthetic sequence PEGylated VPAC2 receptor agonist) [Agonist P580]
IC50 (Human VPAC1 Receptor): > 25000 nM | IC50 (Human PAC1 Receptor): > 25000 nM

C6-HSDAVFTEQY(OMe)TOrnLRAibQLAAbuAibOrnYLQSIOrnC(PEG40K)OrnGGPSSGAPPPS-NH2 (HSDAVFTEQYTXLRXQLAXXXYLQSIXCXGGPSSGAPPPS; C6 acyl, PEG40K on Cys, C-terminal amide; Synthetic sequence PEGylated VPAC2 receptor agonist) [Agonist P539]
24 h stab (%) [2]: 123% | AUC0-last [1]: 4013 ng·h/mL | Cl/F [1]: 0.417 mL/min/kg | Cmax [1]: 102 ng/mL | Tmax [1]: 24 h | T½ [1]: 15 h

C6-HSDAVFTEQY(OMe)TOrnLRAibQLAAbuAibOrnYLQSIOrnOrnC(PEG20K)GGPSSGAPPPC(PEG20K)-NH2 (HSDAVFTEQYTXLRXQLAXXXYLQSIXXCGGPSSGAPPPC; C6 acyl, two PEG20K, C-terminal amide; Synthetic sequence PEGylated VPAC2 receptor agonist) [Agonist P572]
IC50 (Human VPAC1 Receptor): > 25000 nM | IC50 (Human PAC1 Receptor): > 25000 nM

C6-HSDAVFTEQY(OMe)TOrnLRAibQLAbuAAibOrnYLQSIOrnOrnGGPSSGAPPPC(PEG20K)C(PEG20K)-NH2 (HSDAVFTEQYTXLRXQLXAXXYLQSIXXGGPSSGAPPPCC; C6 acyl, non-natural residues, two PEG20K, C-terminal amide; Synthetic sequence PEGylated VPAC2 receptor agonist) [Agonist P590]
IC50 (Human VPAC1 Receptor): > 25000 nM | IC50 (Human PAC1 Receptor): > 25000 nM

C6-HSDAVFTEQY(OMe)TOrnLRAibQVAAAibK(CO(CH2)2SPEG20K)YLQSIOrnOrnGGPSSGAPPPS-NH2 (HSDAVFTEQYTXLRXQVAAXXYLQSIXXGGPSSGAPPPS; C6 acyl; PEG20K; non-natural residues; amide; Synthetic sequence PEGylated VPAC2 receptor peptide agonist) [Agonist P473]
24 h stab (%) [2]: 86% | IC50 (Human VPAC1 Receptor): > 25000 nM

C6-HSDAVFTEQY(OMe)TOrnLRC(PEG40K)QVAAAibOrnYLQSIOrnOrnGGPSSGAPPPS-NH2 (HSDAVFTEQYTXLRCQVAAXXYLQSIXXGGPSSGAPPPS; N-terminal C6 acyl, PEG40K on Cys, C-terminal amide; Synthetic sequence PEGylated VPAC2 receptor agonist) [Agonist P483]
24 h stab (%) [2]: 22% | IC50 (Human VPAC1 Receptor): > 25000 nM

C6-HSDAVFTEQY(OMe)TOrnLRK(WPEG40K)QVAAAibOrnYLQSIOrnOrnGGPSSGAPPPS-NH2 (HSDAVFTEQYTXLRXQVAAXXYLQSIXXGGPSSGAPPPS; C6 acyl, PEG40K on Lys, C-terminal amide; Synthetic sequence PEGylated VPAC2 receptor agonist) [Agonist P529]
72 h stab (%) [2]: 119%

C6-HSDAVFTEQY(OMe)TRAibRAibQLAAAibOrnY(OMe)LQSIKAibOrnGGPSSGAPPPC(PEG40K)-NH2 (HSDAVFTEQYTRXRXQLAAXXYLQSIKXXGGPSSGAPPPC; C6 acyl; PEG40K; non-natural residues; amide; Synthetic sequence PEGylated VPAC2 receptor peptide agonist) [Agonist P417]
24 h stab (%) [2]: 265% | IC50 (Human VPAC1 Receptor): > 25000 nM

C6-HSDAYFTEQY(OMe)TOrnLRAibQLAAbuAibOrnYLQSIOrnK(CO(CH2)2SPEG20K)OrnGGPSSGAPPPC(PEG20K)-NH2 [Agonist P551]
IC50 (Human VPAC1 Receptor): > 25000 nM | IC50 (Human PAC1 Receptor): > 25000 nM
